The results in this text go back to patent US20150098955A1 (VIELA BIO, published 2015).

Experiment [1] addresses T1, Murine CD40L (form not stated) (murine, UniProt P27548 112-260, limits assumed).
T1 construct: also called MuCD40L
T1 sequence (looked up): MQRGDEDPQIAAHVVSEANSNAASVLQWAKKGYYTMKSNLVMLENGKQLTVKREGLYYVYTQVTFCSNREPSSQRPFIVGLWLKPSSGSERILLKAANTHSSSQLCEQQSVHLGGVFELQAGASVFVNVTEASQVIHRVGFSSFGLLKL
The experiment can be described thus: biosensor competition: inhibition of murine CD40L binding to immobilized murine CD40 receptor.

In experiment [2] the target is Murine CD40L on cells (D10.G4 / D10G4.1 cells; activated murine T cells) (murine) (UniProt P27548). Description: cell-based or functional assay.
The target in experiment [3] is Murine MegaCD40L (Axxora, cat. ALX522120) (murine) (UniProt P27548). Description: cell-based or functional assay.
The target of experiment [4] is T1, Murine CD40L (form not stated). Description: method not stated (figure legend).
Experiment [5] deals with T2, Human CD40L, membrane form, on cells (Jurkat D1.1 cells; activated primary human T cells) (human, UniProt P29965 1-261).
T2 sequence: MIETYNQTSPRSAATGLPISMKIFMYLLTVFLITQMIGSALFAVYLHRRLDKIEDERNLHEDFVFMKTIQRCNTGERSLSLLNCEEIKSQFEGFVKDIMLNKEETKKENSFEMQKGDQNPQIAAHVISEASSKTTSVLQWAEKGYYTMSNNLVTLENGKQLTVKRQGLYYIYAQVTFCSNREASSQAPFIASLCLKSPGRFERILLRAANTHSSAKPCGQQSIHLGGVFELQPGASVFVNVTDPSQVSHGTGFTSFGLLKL
Description: cell-based or functional assay.

Experiment [6] concerns the target T3, Recombinant human CD40L (Human MegaCD40L; Axxora) (human, UniProt P29965 47-261, biotinylated with EZ-Link sulfo-NHS-biotin where used in the plate binding assay).
T3 construct: extracellular domain; Bought construct (Axxora ALX522110): two trimeric CD40 ligands linked via the ACRP30 collagen domain; also called biotinylated Human MegaCD40L; Mega human CD40L; not shown: FLAG tag and collagen domain of ACRP30/adiponectin that links two CD40L trimers
T3 sequence (looked up): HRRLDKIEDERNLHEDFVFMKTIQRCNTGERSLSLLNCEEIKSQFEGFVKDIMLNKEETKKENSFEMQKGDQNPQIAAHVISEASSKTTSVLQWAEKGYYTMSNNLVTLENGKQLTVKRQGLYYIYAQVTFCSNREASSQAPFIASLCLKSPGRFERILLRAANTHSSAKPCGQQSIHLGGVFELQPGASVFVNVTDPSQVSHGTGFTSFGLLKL
The experiment can be described thus: ProteOn XPR36 biosensor, human MegaCD40L immobilized on GLC chip, Tn3 as analyte, equilibrium analysis, 25 C. The procedure:
ProteOn phosphate buffered saline with 0.005% Tween 20, pH 7.4 (PBS/Tween) was used as running buffer. Human MegaCD40L was immobilized on the chip at a surface density of approximately 2300 RU. […] Samples of each concentration were injected into the six analyte channels at a flow rate of 30 μl/min. for 300 seconds. The Kd was determined by using the equilibrium analysis setting within the ProteOn software.

Experiment [7] concerns the target T3, Recombinant human CD40L (Human …). Description: cell-based or functional assay.

The term IC50 denotes the concentration at which inhibition is half-maximal. A lower IC50 goes with inhibition by little substance. The term Kd denotes the equilibrium constant for the complex coming apart.

B1: Clone M13 (murine CD40L-specific Tn3 scaffold) (designed binder)
chain: IEVKDVTDTTALITWHDAFGYDFGCELTYGIKDVPGDRTTIDLPDHFHNYSIGNLKPDTEYEVSLICANDHGFDSNPAKETFTT
notes: also called monovalent M13
For B1, the IC50 in experiment [1] amounted to 71 nM.

B2: Clone M31 (affinity optimized variant of M13, murine CD40L-specific) (designed binder)
chain: IEVKDVTDTTALITWHDPSGYDFWCELTYGIKDVPGDRTTIDLPDHFHNYSIGNLKPDTEYEVSLICANDHGFDSYPAKETFTT
As to B2, in experiment [2], the IC50, inhibition of CD86 up regulation on CD19+ B cells (PBMC stimulated with D10.G4 cells) came out at 1.5 nM and the fold increase in potency in the PBMC assay over M13 is 20 fold. The IC50, neutralization of murine CD40L-induced NFκB activity (luciferase reporter cells) in experiment [3] amounted to 1.6 nM. Moreover, the “fold affinity improvement over M13” value in experiment [4] is roughly 20 fold.

B3: Clone 342 - Affinity Mature variant (w/WT FG loop) (designed binder)
chain: AIEVKDVTDTTALITWSDDFGEYVWCELTYGIKDVPGDRTTIDLWYHHAHYSIGNLKPDTEYEVSLICRRGDMSSNPAKETFTTGGGTLGHHHHHHHH
notes: Secreted His8-tagged form
Take B3: the “PBMC IC50” value in experiment [5] amounted to 0.7 nM. In addition, the equilibrium dissociation constant (Kd) in experiment [6] was found to be 1.4 nM. The “IC50, inhibition of human CD40L-induced NFκB activity (luciferase reporter HEK293 cells)” value in experiment [7] was 1.5 nM.
